Test [1] has as its target CD209 (DC-SIGN) on monocyte-derived dendritic cells (human) (UniProt Q9NNX6). As to the kind of experiment: flow cytometry; calcein signal of immunoliposomes relative to FITC signal of the mAb.
For test [2] the target is unchanged. As to the kind of experiment: flow cytometry, right shift of the whole histogram vs. control peak (FIG. 1). (In flow cytometry, cells or beads pass a laser one at a time.)
Test [3] shares this target. As to the kind of experiment: flow cytometry, percent of MoDCs positive for calcein after monospecific anti-CD209 protein A immunoliposomes (FIG. 4A).

Chain of UniProt Q9NNX6 (Q9NNX6 whole entry): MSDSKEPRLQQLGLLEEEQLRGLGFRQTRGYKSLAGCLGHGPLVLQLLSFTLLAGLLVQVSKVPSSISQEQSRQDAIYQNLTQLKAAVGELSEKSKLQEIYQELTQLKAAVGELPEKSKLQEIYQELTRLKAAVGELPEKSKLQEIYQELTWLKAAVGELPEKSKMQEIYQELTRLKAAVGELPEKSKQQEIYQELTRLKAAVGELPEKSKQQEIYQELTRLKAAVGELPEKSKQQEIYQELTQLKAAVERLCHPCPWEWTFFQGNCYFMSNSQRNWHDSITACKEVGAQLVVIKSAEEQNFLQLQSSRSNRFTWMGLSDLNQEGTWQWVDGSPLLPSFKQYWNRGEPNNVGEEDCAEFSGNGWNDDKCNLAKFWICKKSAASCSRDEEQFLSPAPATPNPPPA

Regarding “CD209-specific mAb derived from clone 120507 (IgG2b), R&D Systems (antibody)”, the TEILS (immunoliposomal net targeting efficacy) in test [1] was 110%. For the same substance, in test [2], the percent of cells targeted amounted to 100%. Also, the liposomal targeting efficacy in test [3] is 83.3%.

(Values after patent US20050142114A1.)
